Test results taken from patent US20180037892, “EPCAM APTAMERS AND CONJUGATES THEREOF” (Deakin University, published 2018).

Columns and labels:
EpCAM [1] = molecular target: T1, EpCAM (UniProt P16422 P16422:24-314); experiment: flow; HT29 cells, 37 C; no binding to EpCAM-negative HEK293T and K562; details: tags: native EpCAM on HT29 or HEY cells; label: 5' TYE665; hairpin
T1 sequence: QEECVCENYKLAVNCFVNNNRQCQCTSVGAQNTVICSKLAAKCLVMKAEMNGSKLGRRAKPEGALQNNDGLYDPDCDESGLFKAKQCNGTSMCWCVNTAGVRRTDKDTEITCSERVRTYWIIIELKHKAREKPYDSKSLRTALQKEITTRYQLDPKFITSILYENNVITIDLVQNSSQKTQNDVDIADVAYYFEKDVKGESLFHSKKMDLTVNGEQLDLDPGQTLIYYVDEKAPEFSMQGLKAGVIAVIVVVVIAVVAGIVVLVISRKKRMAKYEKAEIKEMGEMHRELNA
Method: (§1) The equilibrium dissociation constant (KD) of each DNA EpCAM aptamer (Ep7, Ep8 and Ep9) was determined by measuring its binding to native EpCAM protein expressed on the cell surface using flow cytometry. HT29, HEY and HEK293T (5×10⁵) cells were first incubated with blocking buffer (PBS containing 10% FCS, 1 mg/mL tRNA, 1 mg/mL BSA) for 30 minutes followed by a single wash with binding buffer (PBS containing 10% FCS, 1 mg/mL tRNA, 1 mg/mL BSA) prior to incubation with serial dilutions of concentrations of the respective TYE665-labelled aptamers (0 to 200 nM) in binding buffer for 30 min at 37° C. The cells were washed three times with PBS and resuspended in PBS prior to flow cytometric analysis. The fluorescent intensity was determined using a FACS Canto II flow cytometer (Becton Dickinson), counting 10,000 events for each sample. The mean fluorescent intensity of each concentration was subtracted from that of the auto fluorescent control and the KD for each aptamer was calculated from the normalised values for fluorescent intensity.

EpCAM [2] = molecular target: T1, EpCAM; experiment: flow; HEY cells, 37 C; details: tags: native EpCAM on HT29 or HEY cells, label: 5' TYE665, hairpin
Method: as §1

[3] = molecular target: T2, Transferrin receptor (TfR) (Mus musculus, UniProt Q62351 Q62351:1-763); experiment: flow; bEnd.3 cells, 1 mM MgCl2 folding, 37 C; details: tags: native TfR on bEnd.3 mouse cerebral endothelial cells; chain copies: 2; label: 5' TYE665; hairpin
[4] = molecular target: T2, Transferrin receptor (TfR); experiment: flow; bEnd.3 cells, 5 mM MgCl2 folding, 37 C; not internalised; details: tags: native TfR on bEnd.3 mouse cerebral endothelial cells; chain copies: 2; label: 5' TYE665; two hairpins
Method: (§2) In order to determine the binding affinity (equilibrium dissociation constant KD) of the aptamers. Binding assays were conducted to measure the binding to native EpCAM protein expressed on the cell surface. The aptamers were incubated with the cells at concentrations ranging from 0 nM to 400 nM. These were subsequently analysed by flow cytometry. Aptamers were thawed from storage (−20° C.) prior to use. These were then diluted via serial dilutions with phosphate buffered saline (PBS) in order to achieve the desired concentrations. PBS was supplemented with a MgCl₂ concentration appropriate for the aptamer (1 mM for anti-TfR aptamers; 5 mM for conjugate aptamers). Aptamers were then folded into their 3D structures using a thermocycler (85° C. for 5 minutes, slow cooling to 22° C. over 10 minutes and 37° C. for 15 minutes).
(§3) The binding affinities of aptamers Bi1, Bi2 and Bi3 were determined semi-quantitatively via flow cytometry, using bEnd.3 cells to assess reactivity with TfR, HEY cells to determine EpCAM specificity and the MOLT4 cell line as a negative control. Three independent binding assays were performed for these aptamer against all three cell lines (bEnd.3, HEY and MOLT4).

EpCAM [5] = molecular target: T1, EpCAM; experiment: flow; HEY cells, scrambled EpCAM loop, 5 mM MgCl2 folding, 37 C; details: tags: native EpCAM on HT29 or HEY cells; label: 5' TYE665; two hairpins
Method: as §2, §3

[6] = molecular target: T2, Transferrin receptor (TfR); experiment: flow; bEnd.3 cells, 5 mM MgCl2 folding, 37 C; details: tags: native TfR on bEnd.3 mouse cerebral endothelial cells; chain copies: 2; label: 5' TYE665; two hairpins
Method: as §2, §3

EpCAM [7] = molecular target: T1, EpCAM; experiment: flow; HEY cells, 5 mM MgCl2 folding, 37 C; details: tags: native EpCAM on HT29 or HEY cells; label: 5' TYE665; two hairpins
Method: as §2, §3

[8] = molecular target: T2, Transferrin receptor (TfR); experiment: flow; bEnd.3 cells, 5 mM MgCl2 folding, 37 C; text gives 305.5; details: tags: native TfR on bEnd.3 mouse cerebral endothelial cells; chain copies: 2; label: 5' TYE665; two hairpins
Method: as §2, §3

[9] = molecular target: T2, Transferrin receptor (TfR); experiment: flow; bEnd.3 cells, 1 mM MgCl2 folding, 37 C; text gives 365.6; details: tags: native TfR on bEnd.3 mouse cerebral endothelial cells; chain copies: 2; label: 5' TYE665; hairpin
EpCAM [10] = molecular target: T1, EpCAM; experiment: flow; HEY cells, 37 C; not internalised; details: tags: native EpCAM on HT29 or HEY cells; label: 5' TYE665; hairpin

T2 sequence (Q62351 whole entry, one chain of several): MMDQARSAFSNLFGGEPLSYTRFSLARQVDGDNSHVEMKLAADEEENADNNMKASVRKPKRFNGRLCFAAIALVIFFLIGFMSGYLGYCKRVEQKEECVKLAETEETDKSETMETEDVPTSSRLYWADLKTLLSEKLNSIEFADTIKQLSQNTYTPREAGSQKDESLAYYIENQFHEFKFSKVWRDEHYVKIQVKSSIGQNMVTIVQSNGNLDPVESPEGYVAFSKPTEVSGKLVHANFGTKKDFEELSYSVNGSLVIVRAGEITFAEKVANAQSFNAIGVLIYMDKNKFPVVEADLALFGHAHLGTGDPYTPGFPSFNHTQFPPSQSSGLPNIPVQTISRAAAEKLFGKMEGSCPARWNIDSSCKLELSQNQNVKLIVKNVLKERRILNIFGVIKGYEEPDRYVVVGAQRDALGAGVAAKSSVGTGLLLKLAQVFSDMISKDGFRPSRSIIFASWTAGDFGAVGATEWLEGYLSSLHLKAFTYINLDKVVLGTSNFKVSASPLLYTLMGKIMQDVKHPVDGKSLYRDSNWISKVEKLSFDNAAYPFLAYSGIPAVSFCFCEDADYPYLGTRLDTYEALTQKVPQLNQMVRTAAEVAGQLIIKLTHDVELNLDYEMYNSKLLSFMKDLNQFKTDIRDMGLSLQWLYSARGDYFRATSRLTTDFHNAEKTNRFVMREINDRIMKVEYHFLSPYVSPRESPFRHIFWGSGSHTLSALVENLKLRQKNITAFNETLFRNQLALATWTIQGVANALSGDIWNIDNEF

Question: With GGGGTTGGCCCCT (ssDNA, 3' inverted dT [13 (3' inverted dT)]) [Ep9] as the binder, how does the Kd (EpCAM [1]) read?
Answer: Its Kd is 31.8 nM.

Question: And the Kd (EpCAM [2])?
Answer: The Kd was 266 nM.

Question: For GCGTGTGCACACGC (ssDNA, 3' inverted dT) [TfR1], which Kd [3] is on record?
Answer: Its Kd is 5760 nM.

Question: Which Kd [4] does the source give for GCGCGTGCACGCGCTAACGGATTCCTTTTCCGT (ssDNA, 3' inverted dT) [Bi1 (TENN conjugate, TfR1 loop + scrambled Ep7 loop)] here?
Answer: The Kd was 1690 nM.

Question: What about the Kd (EpCAM [5]) of the same binder?
Answer: Its Kd is 921 nM.

Question: Which Kd [6] does the source give for GCGCGGTACCGCGCTAACGGAGGTTGCGTCCGT (ssDNA, 3' inverted dT) [Bi3 (TEPP, TfR3 loop + Ep7 loop conjugate)] here?
Answer: The Kd was 342 nM.

Question: What about the Kd (EpCAM [7]) of the same binder?
Answer: Its Kd is 219 nM.

Question: GCGCGGGCCCGCGCTAACGGAGGTTGCGTCCGT (ssDNA, 3' inverted dT) [Bi2 (TfR2 loop + Ep7 loop conjugate)] was tested. Which Kd [8] did it give?
Answer: The Kd was 305 nM.

Question: What about the Kd (EpCAM [7]) of the same binder?
Answer: Its Kd is 205 nM.

Question: GCGTGGTACCACGC (ssDNA, 3' inverted dT) [TfR3] was tested. Which Kd [9] did it give?
Answer: The Kd was 366 nM.

Question: For GCGTGGGCCCACGC (ssDNA, 3' inverted dT) [TfR2], which Kd [3] is on record?
Answer: The Kd was 525 nM.

Question: Which Kd (EpCAM [2]; 10 bp stem) does the source give for CGCGCGCCGCAGGTTGCGTGCGGCGCGCGT (ssDNA, 3' inverted dT [30 (3' inverted dT)]) [Ex Ep7 (extended Ep7)] here?
Answer: The Kd was 63.7 nM.

Question: CGCGCGCCGCATTCCTTTTGCGGCGCGCGT (ssDNA, 3' inverted dT [30 (3' inverted dT)]) [Scr Ex Ep7 (scrambled extended Ep7)] was tested. Which Kd (EpCAM [10]) did it give?
Answer: Its Kd is 521 nM.
